The target in this experiment is cynomolgus PCSK9 antigen (NCBI NM_001112660.1) (cynomolgus). Nature of the experiment: BLI (Octet Red 96), antibody on anti-human IgG Fc (AHC) biosensor, PCSK9 in solution, 1:1 model.

Where only a bound is given, the exact number is not on record here.

B1: monoclonal antibody 9M283 (antibody, human IgG2, lambda, V domains shown)
VH: QVQLVQSGAEVKKPGSSVKVSCKASAFTFDSFGMHWVRQAPGQGLEWMGLLWSDGSDEYYADSAKGRFTISRDNSKNTLYLQMNSLRSDDTAVYYCARALGAIYSYYAMDVWGQGTTVTVSS
VL: QSALTQPPSVSGSPGQSVTISCTGTSSNIGNQFVSWYQQLPGTAPKLMIYEYNKRPSGVPDRFSGSKSGNTASLTISGLQTGDEADYYCGSWDSSLSGYVFGTGTRVTVLG
Molecule B1 showed a Kd of 0.08 nM, a koff of 2.46e-05 s⁻¹ and a kon of 308000 M⁻¹ s⁻¹.

B2: monoclonal antibody 9M284 (antibody, human IgG2, lambda)
heavy: QVQLVQSGAEVKKPGSSVKVSCKASAFTFDSFGMHWVRQAPGQGLEWMGLLWSDGSGEYYADSAKGRFTISRDNSKNTLYLQMNSLRSDDTAVYYCARAMGAIYYYYAMDVWGQGTTVTVSSASTKGPSVFPLAPCSRSTSESTAALGCLVKDYFPEPVTVSWNSGALTSGVHTFPAVLQSSGLYSLSSVVTVPSSNFGTQTYTCNVDHKPSNTKVDKTVERKCCVECPPCPAPPVAGPSVFLFPPKPKDTLMISRTPEVTCVVVDVSHEDPEVQFNWYVDGVEVHNAKTKPREEQFNSTFRVVSVLTVVHQDWLNGKEYKCKVSNKGLPAPIEKTISKTKGQPREPQVYTLPPSREEMTKNQVSLTCLVKGFYPSDIAVEWESNGQPENNYKTTPPMLDSDGSFFLYSKLTVDKSRWQQGNVFSCSVMHEALHNHYTQKSLSLSPG
light: QSALTQPPSVSGSPGQSVTISCTGTSSNIGNQFVSWYQQLPGTAPKLMIYEYNKRPSGVPDRFSGSKSGNTASLTISGLQTGDEADYYCGSWDSSLSGYVFGTGTRVTVLGQPKAAPSVTLFPPSSEELQANKATLVCLISDFYPGAVTVAWKADSSPVKAGVETTTPSKQSNNKYAASSYLSLTPEQWKSHRSYSCQVTHEGSTVEKTVAPTECS
The molecule B2 showed a Kd of less than 0.001 nM, a koff of less than 1e-07 s⁻¹ and a kon of 298000 M⁻¹ s⁻¹.

For the origin of these results see patent US20190194356A1.
